Results published in patent US20220162308A1 (Novartis, published 2022).
Read-outs that look alike come from different tables or passages of the source.

Tests used:
[1] = target: T1, Human CD48 on cells (human, UniProt P09326 27-220); assay: cell-based or functional assay
T1 sequence: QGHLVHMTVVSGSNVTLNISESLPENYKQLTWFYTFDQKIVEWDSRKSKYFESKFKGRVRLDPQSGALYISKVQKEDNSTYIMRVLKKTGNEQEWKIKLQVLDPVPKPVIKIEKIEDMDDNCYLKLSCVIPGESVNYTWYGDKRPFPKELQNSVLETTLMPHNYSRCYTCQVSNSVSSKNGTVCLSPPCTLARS

[2] = target: T2, Cynomolgus CD48 (soluble recombinant, SPR analyte) (cynomolgus monkey (Macaca fascicularis), UniProt P09326 30-225 (human entry)); assay: SPR Biacore T200, antibody captured on protein A chip, soluble CD48 as analyte, 25 C, 1:1 model
T2 construct: also called cyno CD48; Cyno CD48; not shown: C-terminal tag (hFc1P, APP6-Avi or His) is not specified for the analyte
T2 chain: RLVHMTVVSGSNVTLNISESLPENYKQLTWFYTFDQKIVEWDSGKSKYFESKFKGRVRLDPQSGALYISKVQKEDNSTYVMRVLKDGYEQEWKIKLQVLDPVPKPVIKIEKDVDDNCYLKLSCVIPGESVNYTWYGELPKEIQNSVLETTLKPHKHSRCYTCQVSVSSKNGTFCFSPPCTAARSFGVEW
Method: (§1) HBS-EP+pH 7.4 containing 10 mM HEPES, 150 mM NaCl, 3 mM EDTA and 0.05% (v/v) surfactant P20 (Teknova, ordering #H8022) was used as running buffer as well as for sample dilution.
(§2) The anti-CD48 antibodies were diluted at 5 μg/ml and injected on flow cells 2 and 4 for 20 sec at 10 μl/min. Capture level for all antibodies was 370-440 RU. Flow cells 1 and 3 were left blank (no antibody captured) and used as a reference surface. Human and cynomolgus CD48 served as analytes in solution. […] After each cycle of antibody capture and analyte injection, the chip surface was regenerated with 10 mM Glycine-HCl pH 1.5 (Cytiva, ordering #BR100354) for 2×30 s at a flow rate of 50 μl/min. Three runs with duplicate measurements and buffer blank injections were performed. Measurements were executed at 25° C. and data collected at a rate of 10 Hz.
(§3) Data were evaluated using the Biacore 8K evaluation software. The raw data were double referenced, i.e. the response of the measuring flow cells was corrected for the response of the reference flow cells (no antibody captured), and in a second step the response of a blank injection (buffer) was subtracted. Finally, the sensorgrams were fitted by applying a 1:1 interaction model with a constant fit of RI (0) and a global fit for Rₘₐₓ. Kinetic rate constants (kₐ, kd) and equilibrium dissociation constants (KD) were calculated. Data were processed separately for each run. The generated values were used to calculate average values and standard deviations of the respective equilibrium dissociation constants and the kinetic rate constants.

[3] = target: T3, Human CD48 (soluble recombinant, SPR analyte) (human, UniProt P09326 27-220); assay: as above
T3 construct: also called Human CD48 antigen; not shown: C-terminal tag (hFc1P, APP6-Avi or His) is not specified for the analyte
T3 sequence: T1 sequence
Method: as §1, §2, §3

[4] = target: T1, Human CD48 on cells; assay: cell-based or functional assay; remark: listed apart in the source
[5] = target: T2, Cynomolgus CD48 (soluble recombinant, …); assay: SPR Biacore T200, antibody captured on Protein A chip, soluble CD48 as analyte, 1:1 model, Exp 1
Method: (§4) Binding to human and cyno CD48 for the WT IgG and DAPA (D265A and P329A mutation) variant was assessed for affinity determinations using Biacore. Kinetic rate constants was performed via SPR using the Biacore T200 instrument (Cytiva, formerly GE Healthcare Lifesciences) as described below.
(§5) The Protein A capture method was utilized in order to determine kinetics for the antibodies. […] The human CD48 and cyno CD48 concentration started at 50 nM and 200 nM respectively, and were serially diluted at one part to one part for nine concentrations. Regeneration was performed at the end of each concentration washing with the Glycine pH1.5 (Cytiva, cat #BR100354).
(§6) Double reference subtraction was completed to generate the final data. The raw data was fitted to a 1:1 binding model, with parameter(s) Rmax set to local.

[6] = target: T3, Human CD48 (soluble recombinant, SPR …); assay: as above
Method: as §4, §5, §6

[7] = target: T2, Cynomolgus CD48 (soluble recombinant, …); assay: SPR Biacore T200, antibody captured on Protein A chip, soluble CD48 as analyte, 1:1 model, Exp 2
Method: as §4, §5, §6

[8] = target: T3, Human CD48 (soluble recombinant, SPR …); assay: as above
Method: as §4, §5, §6

B1: NY938 (antibody, human IgG1, kappa)
heavy: not shown
light: DIQMTQSPSSLSASVGDRVTITCKASQDVGTAVAWYQQKPGKVPKLLIYWASTRHTGVPSRFSGSGSGTDFTLTISSLQPEDVATYYCQQYSTYPITFGQGTKLEIKRTVAAPSVFIFPPSDEQLKSGTASVVCLLNNFYPREAKVQWKVDNALQSGNSQESVTEQDSKDSTYSLSSTLTLSKADYEKHKVYACEVTHQGLSSPVTKSFNRGEC
notes: also called anti-CD48-NY938-hIgG1_kappa (a-fuc); NY938-IgG
- IC50 (nM), cell proliferation/survival (CellTiter-Glo), KMS-21-BM, with anti-human Fc-VC-MMAE [1]: 0.008 nM
- IC50 (nM), cell proliferation/survival (CellTiter-Glo), KMS-27, with anti-human Fc-VC-MMAE [1]: < 0.001 nM
- IC50 (nM), cell proliferation/survival (CellTiter-Glo), NCI-H929, with anti-human Fc-VC-MMAE [1]: 0.004 nM
- Span (Amax), KMS-21-BM, with anti-human Fc-VC-MMAE [1]: 98.9
- Span (Amax), KMS-27, with anti-human Fc-VC-MMAE [1]: > 100
- Span (Amax), NCI-H929, with anti-human Fc-VC-MMAE [1]: 99.7
- Kd [2]: 1.5 nM
- koff [2]: 0.00037 s⁻¹
- kon [2]: 250000 M⁻¹ s⁻¹
- Kd [3]: 0.5 nM
- koff [3]: 0.00013 s⁻¹
- kon [3]: 250000 M⁻¹ s⁻¹

B2: NY938-CysMab-VC-MMAE (antibody, human IgG1, kappa)
heavy: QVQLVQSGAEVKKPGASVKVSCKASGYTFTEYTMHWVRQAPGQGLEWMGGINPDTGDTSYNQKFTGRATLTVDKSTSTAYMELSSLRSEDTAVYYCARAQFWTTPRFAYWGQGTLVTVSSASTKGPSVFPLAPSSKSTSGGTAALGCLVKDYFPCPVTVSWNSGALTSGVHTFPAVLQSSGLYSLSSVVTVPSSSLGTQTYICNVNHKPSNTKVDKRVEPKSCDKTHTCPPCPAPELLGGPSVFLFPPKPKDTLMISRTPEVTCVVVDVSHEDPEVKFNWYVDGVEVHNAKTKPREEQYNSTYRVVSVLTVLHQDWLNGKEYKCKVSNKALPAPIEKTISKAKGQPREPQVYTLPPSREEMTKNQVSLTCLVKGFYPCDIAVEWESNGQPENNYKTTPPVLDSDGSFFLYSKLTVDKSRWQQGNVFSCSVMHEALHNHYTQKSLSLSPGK
light: B1 light
modifications: VC-MMAE (MC-valcit-PAB-MMAE) on the engineered cysteines (E152C, S375C, EU numbering)
- Amax (Span), KMS-20 [4]: 99.2
- Amax (Span), KMS-21-BM [4]: 105
- Amax (Span), KMS-27 [4]: 98.6
- Amax (Span), NCI-H929 [4]: 101
- IC50 (nM), cell proliferation/survival (CellTiter-Glo), KMS-20 [4]: 0.043 nM
- IC50 (nM), cell proliferation/survival (CellTiter-Glo), KMS-21-BM [4]: 0.021 nM
- IC50 (nM), cell proliferation/survival (CellTiter-Glo), KMS-27 [4]: 0.017 nM
- IC50 (nM), cell proliferation/survival (CellTiter-Glo), NCI-H929 [4]: 0.018 nM

B3: NY938-DAPA-VC-MMAE (antibody, human IgG1, kappa)
heavy: QVQLVQSGAEVKKPGASVKVSCKASGYTFTEYTMHWVRQAPGQGLEWMGGINPDTGDTSYNQKFTGRATLTVDKSTSTAYMELSSLRSEDTAVYYCARAQFWTTPRFAYWGQGTLVTVSSASTKGPSVFPLAPSSKSTSGGTAALGCLVKDYFPCPVTVSWNSGALTSGVHTFPAVLQSSGLYSLSSVVTVPSSSLGTQTYICNVNHKPSNTKVDKRVEPKSCDKTHTCPPCPAPELLGGPSVFLFPPKPKDTLMISRTPEVTCVVVAVSHEDPEVKFNWYVDGVEVHNAKTKPREEQYNSTYRVVSVLTVLHQDWLNGKEYKCKVSNKALAAPIEKTISKAKGQPREPQVYTLPPSREEMTKNQVSLTCLVKGFYPCDIAVEWESNGQPENNYKTTPPVLDSDGSFFLYSKLTVDKSRWQQGNVFSCSVMHEALHNHYTQKSLSLSPGK
light: B1 light
modifications: VC-MMAE (MC-valcit-PAB-MMAE) on the engineered cysteines (E152C, S375C, EU numbering)
- Amax (Span), KMS-20 [4]: 99.8
- Amax (Span), KMS-21-BM [4]: 105
- Amax (Span), KMS-27 [4]: 108
- Amax (Span), NCI-H929 [4]: 105
- IC50 (nM), cell proliferation/survival (CellTiter-Glo), KMS-20 [4]: 0.037 nM
- IC50 (nM), cell proliferation/survival (CellTiter-Glo), KMS-21-BM [4]: 0.021 nM
- IC50 (nM), cell proliferation/survival (CellTiter-Glo), KMS-27 [4]: 0.014 nM
- IC50 (nM), cell proliferation/survival (CellTiter-Glo), NCI-H929 [4]: 0.016 nM

B4: NY938 DAPA (antibody, human IgG1, kappa, name in EU numbering)
heavy: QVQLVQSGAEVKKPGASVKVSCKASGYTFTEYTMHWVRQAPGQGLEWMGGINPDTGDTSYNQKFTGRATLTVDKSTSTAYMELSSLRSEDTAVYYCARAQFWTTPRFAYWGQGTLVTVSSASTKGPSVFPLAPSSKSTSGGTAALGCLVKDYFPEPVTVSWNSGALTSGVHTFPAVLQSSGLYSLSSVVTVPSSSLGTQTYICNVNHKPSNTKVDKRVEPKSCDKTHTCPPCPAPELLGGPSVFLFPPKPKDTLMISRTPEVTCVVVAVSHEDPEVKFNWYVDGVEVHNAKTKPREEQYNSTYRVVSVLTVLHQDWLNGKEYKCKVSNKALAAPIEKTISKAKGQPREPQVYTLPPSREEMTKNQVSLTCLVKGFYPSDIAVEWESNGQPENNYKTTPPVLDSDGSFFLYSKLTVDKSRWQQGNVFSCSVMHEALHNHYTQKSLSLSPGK
light: B1 light
notes: Positions are EU numbers; also called NY938 DAPA IgG variant
- Kd [5]: 1.07 nM
- koff [5]: 0.000289 s⁻¹
- kon [5]: 271000 M⁻¹ s⁻¹
- Kd [6]: 0.296 nM
- koff [6]: 0.000104 s⁻¹
- kon [6]: 352000 M⁻¹ s⁻¹
- Kd [7]: 0.774 nM
- koff [7]: 0.000316 s⁻¹
- kon [7]: 409000 M⁻¹ s⁻¹
- Kd [8]: 0.252 nM
- koff [8]: 0.000115 s⁻¹
- kon [8]: 456000 M⁻¹ s⁻¹

B5: CD48A-CysMab-VC-MMAE (antibody, human IgG1, kappa)
heavy: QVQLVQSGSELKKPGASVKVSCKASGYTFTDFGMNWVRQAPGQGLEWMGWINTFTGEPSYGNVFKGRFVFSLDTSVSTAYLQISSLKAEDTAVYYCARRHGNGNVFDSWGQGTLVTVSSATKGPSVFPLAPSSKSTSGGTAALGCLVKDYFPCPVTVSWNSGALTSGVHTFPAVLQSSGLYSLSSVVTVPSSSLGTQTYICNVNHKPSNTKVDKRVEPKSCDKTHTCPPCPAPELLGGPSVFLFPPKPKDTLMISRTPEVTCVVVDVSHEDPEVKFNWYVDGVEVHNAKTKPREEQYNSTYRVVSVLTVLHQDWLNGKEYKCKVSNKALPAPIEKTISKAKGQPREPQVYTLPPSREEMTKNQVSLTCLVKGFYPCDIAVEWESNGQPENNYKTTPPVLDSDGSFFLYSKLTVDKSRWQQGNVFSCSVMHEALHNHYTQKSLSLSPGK
light: EIVLTQSPDFQSVTPKEKVTITCRASQSIGSNIHWYQQKPDQSPKLLIKYTSESISGVPSRFSGSGSGTDFTLTINSLEAEDAATYYCQQSNSWPLTFGGGTKVEIKRTVAAPSVFIFPPSDEQLKSGTASVVCLLNNFYPREAKVQWKVDNALQSGNSQESVTEQDSKDSTYSLSSTLTLSKADYEKHKVYACEVTHQGLSSPVTKSFNRGEC
modifications: MC-valcit-PAB-MMAE on the engineered cysteines (CysMab: E152C, S375C, EU numbering); DAR 3.9
- IC50 (nM), cell proliferation/survival (CellTiter-Glo), KMS-21-BM [1]: 0.062 nM
- IC50 (nM), cell proliferation/survival (CellTiter-Glo), KMS-27 [1]: 6.1 nM
- IC50 (nM), cell proliferation/survival (CellTiter-Glo), NCI-H929 [1]: 2.1 nM

B6: NY920-DAPA-VC-MMAE (antibody, human IgG1, kappa)
heavy: EVQLLESGGGLVQPGGSLRLSCAASGFTFSSFAMSWVRQAPGKGLEWVSAISGFGGSTYYADSVKGRFTISRDNSKNTLYLQMNSLRAEDTAVYYCARQFWEDQPFYFDYWGQGTLVTVSSASTKGPSVFPLAPSSKSTSGGTAALGCLVKDYFPCPVTVSWNSGALTSGVHTFPAVLQSSGLYSLSSVVTVPSSSLGTQTYICNVNHKPSNTKVDKRVEPKSCDKTHTCPPCPAPELLGGPSVFLFPPKPKDTLMISRTPEVTCVVVAVSHEDPEVKFNWYVDGVEVHNAKTKPREEQYNSTYRVVSVLTVLHQDWLNGKEYKCKVSNKALAAPIEKTISKAKGQPREPQVYTLPPSREEMTKNQVSLTCLVKGFYPCDIAVEWESNGQPENNYKTTPPVLDSDGSFFLYSKLTVDKSRWQQGNVFSCSVMHEALHNHYTQKSLSLSPGK
light: not shown
modifications: VC-MMAE (MC-valcit-PAB-MMAE) on the engineered cysteines (E152C, S375C, EU numbering)
- Amax (Span), KMS-20 [4]: 94
- Amax (Span), KMS-21-BM [4]: 92.9
- Amax (Span), KMS-27 [4]: 83.9
- Amax (Span), NCI-H929 [4]: 89.7
- IC50 (nM), cell proliferation/survival (CellTiter-Glo), KMS-20 [4]: 0.077 nM
- IC50 (nM), cell proliferation/survival (CellTiter-Glo), KMS-21-BM [4]: 0.026 nM
- IC50 (nM), cell proliferation/survival (CellTiter-Glo), KMS-27 [4]: 0.028 nM
- IC50 (nM), cell proliferation/survival (CellTiter-Glo), NCI-H929 [4]: 0.027 nM
